Measured values: the Immune Epitope Database (IEDB)

Columns and labels:
HLA-B*08:01 = experiment: IEDB peptide-MHC binding, purified MHC/competitive/radioactivity; ≥ and ≤ were set here for values at or beyond the usual limits of such assays; conditions: source organism: Triticum aestivum
HLA-A*01:01 = experiment: as above; conditions: source organism: Triticum aestivum

Sequence | IC50 (HLA-B*08:01) [nM] | IC50 (HLA-A*01:01) [nM]
FLLQQCKPV | 7.8 | ≥ 100000
LAMAMKIATA | 161 | ≥ 100000
MAMKIATAA | 5.2 | ≥ 100000
MKTFLILAL | 223 | ≥ 100000
LLQQCKPVSL | 14 | ≥ 100000
MNIASASRL | 368 | ≥ 100000
QGMHILLPL | 73 | ≥ 100000
CAAIHTIIH | 465 | ≥ 100000
LLSPRGKEL | 91 | ≥ 100000
FPQQQRPFI | 112 | ≥ 100000
VSFQQPQQQY | ≥ 100000 | 365
WLQQQLVPQL | 286 | ≥ 100000
SSQVLQQSTY | ≥ 100000 | 103
LIPCRDVVL | 246 | ≥ 100000
QLEAIRSLV | 353 | 17100
LLQQSKPASL | 25 | 33500
LQQCKPVSL | 72 | ≥ 100000
VMRQQCCQQL | 162 | ≥ 100000
LEAIRSLVL | 303 | ≥ 100000
AMAMKIATA | 48 | ≥ 100000
